# Source: PMC6412583
# What was measured:
# [1] = molecular target: T (control protein of the yeast two-hybrid kit, pGBKT7-T as printed); assay: two-hybrid; quantitative β-gal assay of mated yeast cells with ONPG as substrate, Miller's units from OD420, in triplicate; product in test samples almost 20 h after substrate addition
# [2] = molecular target: GmZPR3d (soybean (Glycine max)); assay: as above
fold β-Gal activity against GmHD-ZIP III-2::ZPR3b and GmHD-ZIP III-2::ZPR3c [2] [fold],Substance,fold β-Gal activity against any of the experimental pairs [1] [fold]
–,"53 (positive control protein of the yeast two-hybrid kit, pGADT7-53 as printed) (domain or fragment)",14
7,GmHD-ZIP III-2 (natural protein),–
